# Experimental data published in patent publication CN117603358A (INST MICROBIOLOGY CAS; 3SBIO GROUP; SHANXI ADVANCED …, dated 2024).
# B1: L4.65单抗 (antibody, V domains shown)
# VH: QITLKESGPTLVKPTQTLTLTCTFSGFSLSTSGVGVAWIRQPPGKALEWLALIYWDNDKRSSPSLNNRLTITKDTSKNQVVLTMTNMDPEDTATYYCAHFFSHYDSSNYYYGSWFDPWGQGTLVTVSS
# VL: EIVLTQSPGTLSLSPGERATLSCRASQSFDSRYLGWYQQKSGQAPRLLIYGASSRATGIPDRFSGSGSGTDFTLTISRLEPEDFAVYYCQQFGDSPFTFGQGTKLEIKR
# B2: CoV56单抗 (antibody, V domains shown)
# VH: EVQLVESGGGVVQPGGSLRLSCAVSGFTFDDYAMHWVRQAPGKGLDWVSLISGDGSYTYYADSVKGRFTISRDSSKNSLYLQMNSLRTEDTALYYCAKAQTPTLWWLQDAFDIWGQGTMVTVSS
# VL: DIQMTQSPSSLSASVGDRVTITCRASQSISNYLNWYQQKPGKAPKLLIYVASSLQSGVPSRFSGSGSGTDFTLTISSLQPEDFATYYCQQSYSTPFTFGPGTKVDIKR
# Experiments:
# Experiment in all cases: cell-based or functional assay
# S蛋白, SARS-CoV-2 BQ.1 [1] = target: S蛋白, SARS-CoV-2 BQ.1 (SARS-CoV-2 BQ.1)
# S蛋白, SARS-CoV-2 BA.4/5 [2] = target: S蛋白, SARS-CoV-2 BA.4/5 (SARS-CoV-2 BA.4/5)
# S蛋白, SARS-CoV-2 BA.2.75 [3] = target: T1, S蛋白, SARS-CoV-2 BA.2.75 (SARS-CoV-2 BA.2.75)
# S蛋白, SARS-CoV-2 BQ.1.1 [4] = target: S蛋白, SARS-CoV-2 BQ.1.1 (SARS-CoV-2 BQ.1.1)
# S蛋白, SARS-CoV-2 XBB.1.5 [5] = target: T2, S蛋白, SARS-CoV-2 XBB.1.5 (SARS-CoV-2 XBB.1.5)
# S蛋白, SARS-CoV-2 XBB.1.16 = S蛋白, SARS-CoV-2 XBB.1.16 (SARS-CoV-2 XBB.1.16)
# S蛋白, SARS-CoV-2 BF.7 [6] = target: S蛋白, SARS-CoV-2 BF.7 (SARS-CoV-2 BF.7)
# S蛋白, SARS-CoV-2 BA.1.1 = S蛋白, SARS-CoV-2 BA.1.1 (SARS-CoV-2 BA.1.1)
# S蛋白, SARS-CoV-2 XBB [7] = target: S蛋白, SARS-CoV-2 XBB (SARS-CoV-2 XBB)
# S蛋白, SARS-CoV-2 BA.1 [8] = target: S蛋白, SARS-CoV-2 BA.1 (SARS-CoV-2 BA.1)
# S蛋白, SARS-CoV-2 BA.3 = S蛋白, SARS-CoV-2 BA.3 (SARS-CoV-2 BA.3)
# S蛋白, SARS-CoV-2 BA.2 = S蛋白, SARS-CoV-2 BA.2 (SARS-CoV-2 BA.2)
# S蛋白, SARS-CoV-2 EG.5突变株 = S蛋白, SARS-CoV-2 EG.5突变株 (SARS-CoV-2 EG.5)
# S蛋白, SARS-CoV-2 BQ.1 [9] = target: S蛋白, SARS-CoV-2 BQ.1 (SARS-CoV-2 BQ.1); remark: listed apart in the source
# S蛋白, SARS-CoV-2 BA.4/5 [10] = target: S蛋白, SARS-CoV-2 BA.4/5 (SARS-CoV-2 BA.4/5); remark: listed apart in the source
# S蛋白, SARS-CoV-2 BA.2.75 [11] = target: T1, S蛋白, SARS-CoV-2 BA.2.75; remark: listed apart in the source
# S蛋白, SARS-CoV-2 BQ.1.1 [12] = target: S蛋白, SARS-CoV-2 BQ.1.1 (SARS-CoV-2 BQ.1.1); remark: listed apart in the source
# S蛋白, SARS-CoV-2 XBB.1.5 [13] = target: T2, S蛋白, SARS-CoV-2 XBB.1.5; remark: listed apart in the source
# S蛋白, SARS-CoV-2 BF.7 [14] = target: S蛋白, SARS-CoV-2 BF.7 (SARS-CoV-2 BF.7); remark: listed apart in the source
# S蛋白, SARS-CoV-2 Delta = S蛋白, SARS-CoV-2 Delta (SARS-CoV-2 Delta)
# S蛋白, SARS-CoV-2 XBB [15] = target: S蛋白, SARS-CoV-2 XBB (SARS-CoV-2 XBB); remark: listed apart in the source
# S蛋白, SARS-CoV-2 BA.1 [16] = target: S蛋白, SARS-CoV-2 BA.1 (SARS-CoV-2 BA.1); remark: listed apart in the source
Binder,"假病毒中和效果 IC50 (S蛋白, SARS-CoV-2 BQ.1 [1])","假病毒中和效果 IC50 (S蛋白, SARS-CoV-2 BA.4/5 [2])","假病毒中和效果 IC50 (S蛋白, SARS-CoV-2 BA.2.75 [3])","假病毒中和效果 IC50 (S蛋白, SARS-CoV-2 BQ.1.1 [4])","假病毒中和效果 IC50 (S蛋白, SARS-CoV-2 XBB.1.5 [5])","假病毒中和效果 IC50 (S蛋白, SARS-CoV-2 XBB.1.16)","假病毒中和效果 IC50 (S蛋白, SARS-CoV-2 BF.7 [6])","假病毒中和效果 IC50 (S蛋白, SARS-CoV-2 BA.1.1)","假病毒中和效果 IC50 (S蛋白, SARS-CoV-2 XBB [7])","假病毒中和效果 IC50 (S蛋白, SARS-CoV-2 BA.1 [8])","假病毒中和效果 IC50 (S蛋白, SARS-CoV-2 BA.3)","假病毒中和效果 IC50 (S蛋白, SARS-CoV-2 BA.2)","假病毒中和效果 IC50 (S蛋白, SARS-CoV-2 EG.5突变株)","假病毒中和活性 IC50 (S蛋白, SARS-CoV-2 BQ.1 [9])","假病毒中和活性 IC50 (S蛋白, SARS-CoV-2 BA.4/5 [10])","假病毒中和活性 IC50 (S蛋白, SARS-CoV-2 BA.2.75 [11])","假病毒中和活性 IC50 (S蛋白, SARS-CoV-2 BQ.1.1 [12])","假病毒中和活性 IC50 (S蛋白, SARS-CoV-2 XBB.1.5 [13])","假病毒中和活性 IC50 (S蛋白, SARS-CoV-2 BF.7 [14])","假病毒中和活性 IC50 (S蛋白, SARS-CoV-2 Delta)",other results
B1,2.09 µg/mL,0.000377 µg/mL,0.00194 µg/mL,4.58 µg/mL,0.0137 µg/mL,0.0103 µg/mL,0.000446 µg/mL,0.00028 µg/mL,0.00335 µg/mL,0.000394 µg/mL,0.00044 µg/mL,0.00039 µg/mL,0.0521 µg/mL,> 2 µg/mL,0.00138 µg/mL,0.0112 µg/mL,> 2 µg/mL,0.0541 µg/mL,0.00212 µg/mL,0.00252 µg/mL,"假病毒中和活性 IC50 (S蛋白, SARS-CoV-2 XBB [15]): 0.0214 µg/mL; 假病毒中和活性 IC50 (S蛋白, SARS-CoV-2 BA.1 [16]): 0.00135 µg/mL"
B2,19.6 µg/mL,7.53 µg/mL,58.8 µg/mL,15.9 µg/mL,11.8 µg/mL,21.7 µg/mL,11.7 µg/mL,10.8 µg/mL,15.9 µg/mL,14.8 µg/mL,18.5 µg/mL,8.32 µg/mL,13.6 µg/mL,> 2 µg/mL,> 2 µg/mL,> 2 µg/mL,> 2 µg/mL,> 2 µg/mL,> 2 µg/mL,> 2 µg/mL,"假病毒中和活性 IC50 (S蛋白, SARS-CoV-2 XBB [15]): > 2 µg/mL; 假病毒中和活性 IC50 (S蛋白, SARS-CoV-2 BA.1 [16]): > 2 µg/mL"
